From patent US20100196398A1 (AstraZeneca / MedImmune, published 2010)
Numbering of substitutions follows the chain as printed.

B1: fully human monoclonal antibody 4D4 (antibody, V domains shown)
VH: QVQLVESGGGVVQPGRSLRLSCAASGFTFSSYGMHWVRQAPGKGLEWVAVIWYDGSNKYYADSVKGRFTISRDNSKNTLYLQMNSLRAEDTAVYYCARVLGATGGYYYYYGMDVWGQGTTVTVSS
VL: not shown
notes: XenoMouse hybridoma antibody of Campaign 2 (IgG2 and IgG4 strains); also called 4D4.1
B2: fully human monoclonal antibody 4.120 (antibody, V domains shown)
VH: QVQLQESGPGLVKPSETLSLTCTVSGGSISSYYWSWIRQPAGKGLEWIGRIYTSGSTNYNPSLKSRVTMSVDTSKNQFSLKLSSVTAADTAVYYCARRDIGATIKGFDYWGQGTLVTVSS
VL: not shown
notes: XenoMouse hybridoma antibody of Campaign 1 (IgG1 and IgG4 strains immunised with soluble CD105); also called mAb 4.120
B3: fully human monoclonal antibody 6A6 (antibody, V domains shown)
VH: EVQLLESGGGLVQPGGSLRLSCAASGFTFSSYAMSWVRQAPGKGLEWVSTISGGGHSTYYADSVKGRFTISRDNSKNTLYLQMNSLRAEDTAVYYCARIAPAGPHFDYWGQGTLVTVSS
VL: NFMLTQPHSVSESPGKTVTFSCTRSSGSIASNFVQWYQQRPGSSPTTVIYEHNQRPSGVPDRFSGSIDSSSSSASLTISGLKTEDEADYYCQFYDRNSHWVFGGGTKLTVL
notes: XenoMouse hybridoma antibody of Campaign 2 (IgG2 and IgG4 strains); also called 6A6.2
B4: fully human monoclonal antibody 6B1 (antibody, V domains shown)
VH: QVQLVESGGGVVQPGRSLRLSCAASGFTFSSYGMHWVRQAPGKGLEWVAVIWYDGSNKYYADSVKGRFTISRDNSKNTLYLQMNSLRAEDTAVYYCVRDYSSGWYWGQGTLVTVSS
VL: SYELTQPPSVSVSPGQTARITCSGDALPKKYAYWYQQKSGQAPVLVIYEDSKRPSGIPERFSGSSSGTMATLTISGAQVEDEADYSCYSIDSSVNHVVFGGGTKLTVL
notes: XenoMouse hybridoma antibody of Campaign 2 (IgG2 and IgG4 strains); also called 6B1.1
B5: fully human monoclonal antibody 6B10 (antibody, V domains shown)
VH: QEQLVESGGGVVQPGRSLRLSCTASGFTFSNYGIHWVRQAPGKGLEWVTVISYDGSKKYYADSVKGRFTISRDNSKNTLYLQMNSLRAEDTAVYYCARAFSTMVRGVDHWGQGTLVTVSS
VL: DIQMTQSPSSLSASVGDRVTITCQASQDIYKSLNWYQQRPGKAPNLLIYDASNLETGVPSRFSGSGSGTDFTFTISSLQPEDFARYFCQQYDNLPLTFGGGTRVEIK
notes: XenoMouse hybridoma antibody of Campaign 2 (IgG2 and IgG4 strains); also called 6B10.1; mAb 6B10
B6: fully human monoclonal antibody 10C9 (antibody, V domains shown)
VH: QVQLVESGGGVVQPGRSLRLSCAASGFTFRSYGMHWVRQAPGKGLEWVAVIWYDGSNKYYADSVKGRFTISRDNSKNTLDLQMNSLRAEDTAVYYCARDRIAAARYYNGMDVWGQGTTVTVSS
VL: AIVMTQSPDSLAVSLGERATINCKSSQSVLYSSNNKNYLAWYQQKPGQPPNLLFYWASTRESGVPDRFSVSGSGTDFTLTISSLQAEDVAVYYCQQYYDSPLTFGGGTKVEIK
notes: XenoMouse hybridoma antibody of Campaign 2 (IgG2 and IgG4 strains); also called 10C9.2
B7: fully human monoclonal antibody 11H2 (antibody, V domains shown)
VH: QVQLVESGGGVVQPGRSLRLSCAASGFSFSSYGMHWVRQAPGKGLDWVAIIWYDGSYKYYADSVKGRFTISRDNSKNTLSLQMNSLRAEDTAVYYCARDGKYPFDYWGQGTLVTVSS
VL: SYVLTQPPSVSVAPGQTARITCGGNNIGSKSVHWYQQKPGQAPVLVVYDDSDRPSGIPERFSGSNSGNTATLTISRVEAGDEADYYCQVWDRSSDHVVFGGGTKLTVL
notes: XenoMouse hybridoma antibody of Campaign 2 (IgG2 and IgG4 strains); also called 11H2.1
B8: fully human monoclonal antibody 9H10 (antibody, V domains shown)
VH: QVQLVESGGGVVQPGRSLRLSCAASGFAFINYGMHWVRQAPGKGLDWVAVISYDGSNKYYTDSVKGRFTISRDNSKNTLYLQMNSLRAEDTAVYYCARDLMGATLFDNWGQGTLVTVSS
VL: B7 VL with T21S, Y35F, R92S
notes: XenoMouse hybridoma antibody of Campaign 2 (IgG2 and IgG4 strains immunised with B300.19/human CD105 cells); also called 9H10.2
B9: fully human monoclonal antibody 4.37 (antibody, V domains shown)
VH: QVQLVESGGGVVQPGRSLRLSCAASGFTFSDYGMHWVRQAPGKGLEWVAVIWYDGSNKYYADSVKGRFTISRDNSKNTLYLQMNSLRAEDTAVYYCARAAGFYYYYGMDVWGQGTTVTVSS
VL: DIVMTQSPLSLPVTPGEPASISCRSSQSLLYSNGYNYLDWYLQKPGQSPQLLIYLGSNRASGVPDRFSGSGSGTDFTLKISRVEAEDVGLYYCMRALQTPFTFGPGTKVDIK
notes: XenoMouse hybridoma antibody of Campaign 1 (IgG1 and IgG4 strains immunised with soluble CD105); also called mAb 4.37; 4.37κ

Target: T1, human CD105 (human, UniProt P17813 26-658)
T1 construct: whole, on cells; Target as carried by HUVEC cells in the FACS assays; also called endoglin; END
T1 sequence (looked up): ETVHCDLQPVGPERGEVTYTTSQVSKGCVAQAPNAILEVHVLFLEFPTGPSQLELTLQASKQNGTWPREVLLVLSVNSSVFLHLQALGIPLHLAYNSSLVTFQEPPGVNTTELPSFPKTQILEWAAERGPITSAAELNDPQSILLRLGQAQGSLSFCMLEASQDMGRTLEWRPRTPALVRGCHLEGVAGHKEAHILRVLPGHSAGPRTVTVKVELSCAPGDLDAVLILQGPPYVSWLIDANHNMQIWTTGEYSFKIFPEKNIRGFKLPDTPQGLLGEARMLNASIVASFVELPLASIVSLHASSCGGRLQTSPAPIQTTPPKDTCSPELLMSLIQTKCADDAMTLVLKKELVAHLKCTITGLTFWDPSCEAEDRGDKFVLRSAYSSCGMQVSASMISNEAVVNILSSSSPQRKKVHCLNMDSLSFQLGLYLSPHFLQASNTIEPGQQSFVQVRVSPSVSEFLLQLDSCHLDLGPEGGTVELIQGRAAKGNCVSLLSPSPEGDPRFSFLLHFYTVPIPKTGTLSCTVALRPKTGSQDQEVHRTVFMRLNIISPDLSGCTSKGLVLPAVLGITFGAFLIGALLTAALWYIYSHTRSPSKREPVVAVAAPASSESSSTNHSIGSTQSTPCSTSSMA
Assay: FACS KD determination on HUVEC cells, 4° C., nonlinear fit of geometric mean fluorescence
Description: The affinity of the anti-CD105 antibodies was determined by FACS. […] Cells were kept on ice. Purified antibodies were serially diluted in filtered 1×PBS (2×) across 11 wells in 96-well plates. The twelfth well in each row contained buffer only. Cells and 1×PBS were added to each mAb well such that the final volume was 30 μL/well and each well contained approximately 100,000 cells. Plates were placed on a plate shaker for 3 hours at 4° C., then spun and washed 3 times with PBS. A fluorochrome-labeled secondary goat α-human polyclonal antibody was added to each well in a 200 μL volume. Plates were then incubated for 40 minutes at 4° C., then spun and washed 3 times with PBS.
The Geometric Mean Fluorescence (GMF) of 10,000 cells for each mAb concentration was determined using a FACSCalibur instrument. A nonlinear plot of GMF as a function of molecular mAb concentration was fit using Scientist software using the equation:
In the above equation, F=Geometric mean fluorescence, LT=total molecular mAb concentration, P′=proportionality constant that relates arbitrary fluorescence units to bound mAb, and KD=equilibrium dissociation constant. For each mAb an estimate for KD was obtained as P′ and KD were allowed to float freely in the nonlinear analysis.

Binder | Kd [pM]
B1 | 622
B2 | 770
B3 | < 1150
B4 | 2300
B5 | < 149
B6 | < 748
B7 | 338
B8 | < 584
B9 | < 717

Target: T1, human CD105
Assay: FACS competition on HUVEC cells: unlabeled mAb at 50 ug/ml, wash, then FITC-labeled SN6 at 2 ug/ml; blocked antibody: SN6

Binder | Max % Bloc(king) of SN6 binding [%]
B1 | 5.1
B2 | 29.4
B3 | 95.4
B4 | 20.5
B5 | 96.9
B6 | 9
B7 | 29.4
B8 | 81.9
B9 | 57
